Measurements from US20220064314A1 (QLSF BIOTHERAPEUTICS, published 2022).
Changes are numbered by the printed parent chain.

Key:
human 4-1BB on cells [1] = target: T1, human 4-1BB on cells (human, UniProt Q07011 24-255); assay: cell-based or functional assay
[2] = target: T2, 4-1BB (CD137), antigen of the Octet kinetics (UniProt Q07011 24-186, limits assumed); assay: Octet (BLI), mono-valent binding kinetics
T2 construct: also called TNFRSF9

human 4-1BB on cells [3] = target: T1, human 4-1BB on cells; assay: flow cytometry, HEK293 cells over-expressing human 4-1BB
Method: (§1) Human/Cyno/Mouse 4-1BB transfected HEK293 cells or PHA-P stimulated PBMCs were incubated with serial diluted anti-4-1BB antibodies in FACS buffer (DPBS+ 2% FBS+ 0.05% sodium azide) followed by AF647-labeled F(ab′)2 goat anti-human IgG and 7-AAD. In addition, PBMCs were incubated with FITC Mouse anti-human CD3. Stained 4-1BB expressing HEK293 samples were analyzed using FlowJo by gating on FSC/SSC, followed by live/dead cell gating, and human/Cynomolgous/Mouse 4-1BB+ cells (MFI Geo Mean denoted). Stained Lymphocyte samples were analyzed using FlowJo by gating on FSC/SSC, followed by live/dead cell gating, and CD3+ cells with 4-1BB positives. (Table 2 and Table 3)

[4] = target: T3, mouse 4-1BB on HEK293 cells (mouse, UniProt P20334 24-256); assay: flow cytometry, mouse 4-1BB transfected HEK293 cells
T3 construct: whole, on cells; also called Mouse 4-1BB transfected HEK293 cells
T3 sequence (looked up): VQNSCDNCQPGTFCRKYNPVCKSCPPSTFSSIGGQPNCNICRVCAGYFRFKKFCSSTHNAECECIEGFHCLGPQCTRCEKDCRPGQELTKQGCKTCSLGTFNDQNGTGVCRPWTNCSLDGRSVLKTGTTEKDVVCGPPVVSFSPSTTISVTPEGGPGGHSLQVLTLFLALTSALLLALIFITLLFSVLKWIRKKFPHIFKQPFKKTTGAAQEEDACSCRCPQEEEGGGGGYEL
Method: as §1

human 4-1BB on cells [5] = target: T1, human 4-1BB on cells; assay: cell-based or functional assay; remark: listed apart in the source
[6] = target: T4, cyno 4-1BB on HEK293 cells (cyno, UniProt A9YYE7 24-254); assay: flow cytometry, HEK293 cells over-expressing cyno 4-1BB
T4 construct: whole, on cells; also called Cynomolgous 4-1BB; HEK293 cells over-expressing cyno 4-1BB
T4 sequence (A9YYE7 entry or part of it): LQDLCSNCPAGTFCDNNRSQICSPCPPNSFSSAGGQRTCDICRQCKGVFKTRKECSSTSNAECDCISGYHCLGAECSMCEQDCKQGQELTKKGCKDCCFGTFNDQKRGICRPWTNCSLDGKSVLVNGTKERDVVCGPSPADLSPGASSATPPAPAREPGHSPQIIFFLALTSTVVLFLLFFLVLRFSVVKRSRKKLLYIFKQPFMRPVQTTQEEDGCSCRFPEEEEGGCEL
Method: as §1

human 4-1BB on cells [7] = target: T1, human 4-1BB on cells; assay: flow cytometry, activated (PHA-P stimulated) human T cells
Method: as §1

T1 sequence (Q07011 24-255): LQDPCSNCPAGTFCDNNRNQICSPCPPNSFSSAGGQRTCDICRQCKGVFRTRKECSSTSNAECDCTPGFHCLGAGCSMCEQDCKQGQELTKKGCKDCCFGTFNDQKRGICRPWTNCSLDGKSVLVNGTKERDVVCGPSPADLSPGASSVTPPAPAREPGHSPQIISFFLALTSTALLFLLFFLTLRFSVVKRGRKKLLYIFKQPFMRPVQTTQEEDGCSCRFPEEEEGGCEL

B1: huF1.1.G2.2.4 (antibody, human IgG2, kappa, V domains shown)
VH: QVQLVQSGAEVKKPGASVKVSCKASGYTFTFYTMHWLRQAPGQGLEWIGYINPSSGYTNYNQKFTDRATLTADTSTSTAYMELSSLRSEDTAVYYCARSDGSSSKWYFDVWGQGTTVTVSS
VL: EIVLTQSPDFQSATPKEKVTITCRASSSVSYIHWYQQKPGSSPKAWISATSNLASGVPSRFSGSGSGTSYTLTINRVEAEDAATYYCQQWSSNPFTFGQGTKLEIKR
notes: also called huF1.1.2.4
Q: B1 was tested. Which “NF-KB reporter activation, curve fit Bottom” value (human 4-1BB on cells [1]) did it give?
A: 838 RLU

Q: What about the “NF-KB reporter activation, curve fit Top” value (human 4-1BB on cells [1]) of the same binder?
A: 7190 RLU

Q: And the Kd [2]?
A: 40.6 nM

Q: What about the Response [2] of the same binder?
A: 0.12

Q: What about the “T1/2 Life” value [2] of the same binder?
A: 2.1 min

Q: What about the koff [2] of the same binder?
A: 0.00559 s⁻¹

Q: What about the kon [2] of the same binder?
A: 138000 M⁻¹ s⁻¹

B2: huF1.1.G2.4.4 (antibody, human IgG2, kappa, V domains shown)
VH: B1 VH with V20M, R38K, T74K
VL: B1 VL
notes: also called huF1.1.4.4
Q: What does the source list for B2?
A: NF-KB reporter activation, curve fit Bottom (human 4-1BB on cells [1]): 666 RLU; NF-KB reporter activation, curve fit Top (human 4-1BB on cells [1]): 5940 RLU; Kd [2]: 40.4 nM; Response [2]: 0.137; T1/2 Life [2]: 1.9 min; koff [2]: 0.00618 s⁻¹; kon [2]: 153000 M⁻¹ s⁻¹

B3: F1.1 (antibody, V domains shown)
VH: QVQLQQSGAELARPGASVKMSCKASGYTFTFYTMHWLKQRPGQGLEWIGYINPSSGYTNYNQKFTDKATLTADKSSSTAYMQLSSLTSEDSAVYYCARSDGSSSKWYFDVWGTGTTVTVSS
VL: QIVLSQSPTILSASPGEKVTMTCRASSSVSYIHWYQQKPGSSPKAWISATSNLASGVPARFSGSGSGTSYSLTISRVEAEDAATYYCQQWSSNPFTFGSGTKLEIK
notes: The flow method detects with anti-human IgG; also called anti-4-1BB mAb F1.1
Q: How did the EC50 (human 4-1BB on cells [3]) turn out when B3 was run?
A: 0.341 µg/mL

Q: Does B3 bind [4]?
A: no binding

Q: And the “NF-kB Stimulation (EC50)” value (human 4-1BB on cells [5])?
A: 0.026 µg/mL

Q: And the EC50 [6]?
A: 0.392 µg/mL

Q: What about the EC50 (human 4-1BB on cells [7]) of the same binder?
A: 0.233 µg/mL

B4: cAb 137QL.F1.1.G2 (antibody, human IgG2, V domains shown)
VH: B3 VH
VL: B3 VL
notes: Chimeric antibody; also called Chimeric F1.1; cAb F1.1.G2
Q: For B4, which “NF-KB reporter activation, curve fit Bottom” value (human 4-1BB on cells [1]) is on record?
A: 894 RLU

Q: What about the “NF-KB reporter activation, curve fit Top” value (human 4-1BB on cells [1]) of the same binder?
A: 6730 RLU

Q: And the Kd [2]?
A: 41.9 nM

Q: What about the Response [2] of the same binder?
A: 0.138

Q: What about the “T1/2 Life” value [2] of the same binder?
A: 2 min

Q: What about the koff [2] of the same binder?
A: 0.00578 s⁻¹

Q: And the kon [2]?
A: 138000 M⁻¹ s⁻¹

B5: huG28.21.G2.1.4 (antibody, human IgG2, kappa, V domains shown)
VH: EVQLVQSGAEVKKPGATVKISCKASGFNIKDYYIHWVNQAPGKGLEWIGRIDPEDGDIAYAPKFQDRVTLTVDTSTDTAYLELSSLRSEDTAVYYCTTGNYYAMDFWGQGTTVTVSS
VL: QIVLTQSPATLSASPGERVTLSCTASSSVSSSYLHWYQQKPGSSPKLWIYSTSNLASGVPARFSGSGPGTSYTLTISSMEPEDAATYYCHQYHRSPPTFGQGTKLEIKR
notes: also called huG28.21.1.4
Q: What does the source list for B5?
A: NF-KB reporter activation, curve fit Bottom (human 4-1BB on cells [1]): 625 RLU; NF-KB reporter activation, curve fit Top (human 4-1BB on cells [1]): 4170 RLU; Kd [2]: 15.3 nM; Response [2]: 0.181; T1/2 Life [2]: 1.8 min; koff [2]: 0.00652 s⁻¹; kon [2]: 426000 M⁻¹ s⁻¹

B6: huG28.21.G2.4.4 (antibody, human IgG2, kappa, V domains shown)
VH: B5 VH with V5Q, I20L, A40R, K43Q, V68A, D77N
VL: B5 VL
notes: also called huG28.21.4.4
Q: With B6 as the binder, how does the “NF-KB reporter activation, curve fit Bottom” value (human 4-1BB on cells [1]) read?
A: 592 RLU

Q: And the “NF-KB reporter activation, curve fit Top” value (human 4-1BB on cells [1])?
A: 3920 RLU

Q: What about the Kd [2] of the same binder?
A: 10.4 nM

Q: And the Response [2]?
A: 0.175

Q: And the “T1/2 Life” value [2]?
A: 2.5 min

Q: And the koff [2]?
A: 0.00467 s⁻¹

Q: And the kon [2]?
A: 449000 M⁻¹ s⁻¹

B7: G28.21 (antibody, V domains shown)
VH: EVQLQQSGAELVRPGASVKLSCTASGFNIKDYYIHWVNQRPEQGLEWIGRIDPEDGDIAYAPKFQDKATLTVDTSSNTAYLHIIGLTSEDTAVYYCTTGNYYAMDFWGQGTSVTVSS
VL: QIVLTQSPAIMSASLGERVTMTCTASSSVSSSYLHWYQQKPGSSPKLWIYSTSNLASGVPARFSGSGSGTSYSLTISSMEAEDAATYYCHQYHRSPPTFGSGTKLEIK
notes: also called anti-4-1BB mAb G28.21
Q: What does the source list for B7?
A: EC50 (human 4-1BB on cells [3]): 0.121 µg/mL; binding result [4]: no binding; NF-kB Stimulation (EC50) (human 4-1BB on cells [5]): 0.018 µg/mL; EC50 [6]: 0.162 µg/mL; EC50 (human 4-1BB on cells [7]): 0.08 µg/mL

B8: cAB 137QL.G28.21.G2 (antibody, human IgG2, V domains shown)
VH: B7 VH
VL: B7 VL
notes: Chimeric antibody; also called Chimeric G28.21; cAb G28.21.G2
Q: With B8 as the binder, how does the “NF-KB reporter activation, curve fit Bottom” value (human 4-1BB on cells [1]) read?
A: 879 RLU

Q: And the “NF-KB reporter activation, curve fit Top” value (human 4-1BB on cells [1])?
A: 4590 RLU

Q: What about the Kd [2] of the same binder?
A: 14 nM

Q: And the Response [2]?
A: 0.204

Q: And the “T1/2 Life” value [2]?
A: 2.2 min

Q: And the koff [2]?
A: 0.00523 s⁻¹

Q: And the kon [2]?
A: 373000 M⁻¹ s⁻¹
